Assay results: patent US8105799B2, “Methods of screening compounds inhibiting signal transduction through inflammatory cytokines” (Chugai Seiyaku Kabushiki Kaisha, priority 1998, dated 2012)

Legend:
peritoneal macrophages [1] = experiment: Cytokine production by LPS-stimulated peritoneal macrophages expressing TAK1-DN; format: cell-based; settings: LPS 10 μg/ml, 24 hours, TAK1-DN Tgm-derived macrophages compared with wild-type mouse-derived macrophages, FIG. 4
Description: (§1) Specifically, 10 ml of ice-cold PBS solution containing 0.36% sodium citrate was injected into the peritoneal cavity of a TAK1-DN-expressing transgenic mouse (TAK1-DN Tgm) or a C57BL/6 mouse (wild-type mouse) of the same weeks of age. The mouse was given a massage for 30 seconds, and then the solution was recovered from the mouse. The solution recovered was centrifuged, and the precipitated cells were resuspended in RPMI1640 (GIBCO-BRL) containing 10% FBS (GIBCO-BRL). The cells were plated in wells at a cell density of 5×10^4/well. The cells were cultured at 37° C. for 2 hours, and floating cells were removed by washing with media. Cells adsorbed on the culture plate were used as peritoneal macrophages.
(§2) LPS, at a final concentration of 10 μg/ml, or IL-1α (Genzyme), at a final concentration of 10 ng/ml, was added to the above-prepared peritoneal macrophages, and the cells were further cultured for 24 hours. The culture supernatant was recovered. Then, the amounts of IL-1β in the culture supernatant of LPS-stimulated macrophages and IL-6 in the culture supernatant of IL-1α-stimulated macrophages were assayed by ELISA kits (Genzyme).

peritoneal macrophages [2] = experiment: IL-6 production by IL-1α-stimulated peritoneal macrophages expressing TAK1-DN; format: cell-based; settings: IL-1α 10 ng/ml, 24 hours; TAK1-DN Tgm-derived macrophages compared with wild-type mouse-derived macrophages; ELISA; FIG. 5
Description: as §1, §2

[3] = system: IκBα degradation by proteasome (NFκB activation); experiment: IκBα degradation in TAK1-DN expressing peritoneal macrophages stimulated by LPS and IL-1α (Western blot); format: cell-based, mouse; settings: 30 and 60 minutes, TAK1-DN Tgm-derived macrophages, FIG. 6
Description: The macrophages derived from wild-type mice and from TAK1-DN Tgm, which were prepared as described above, were stimulated by LPS or IL-1, and the time course of degradation of IκBα by proteasome was monitored (0, 30, and 60 minutes). Specifically, the peritoneal macrophages were cultured in wells of a 96-well plate at a cell density of 1×10^6/well. LPS (1 μg/ml) or IL-1α (10 ng/ml) was added to the culture in the presence or absence of proteasome inhibitor MG132 (40 μM). The cells were harvested after 30 or 60 minutes.
The cells were washed with PBS (−), and then a lysis buffer was added thereto for the preparation of cell lysate. An aliquot of each lysate corresponding to about 2×10^5 cells was subjected to gel electrophoresis by 9% SDS-PAGE. The fractionated proteins were blotted onto a nitrocellulose membrane and then incubated with anti-IκBα antibody (SantaCruz) as a primary antibody for 1.5 hours. After wash, horseradish peroxidase-conjugated goat anti-rabbit antibody was used as a secondary antibody. After the reaction of the secondary antibody, the reaction product was detected by using ECL (Amersham).

TAB1 = molecular target: T1, TAB1 (Homo sapiens, UniProt Q15750); experiment: Animal cell two-hybrid assay in CHO cells (luciferase reporter); format: cell-based, hamster; settings: pM-TAK1DN with pVP16-C68 (TAB1C68), 72 hours, FIG. 7
T1 construct: expressed in transfected cells; host or cells: CHO cells transfected with pVP16-C68
T1 sequence (Q15750 437-504): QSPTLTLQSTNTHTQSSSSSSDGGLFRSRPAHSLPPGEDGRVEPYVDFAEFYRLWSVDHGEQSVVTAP
From the text: The animal cell two-hybrid system (Dang et al., (1991) Mol. Cell. Biol. 11, 954-962) using TAB1 peptide and TAK1 peptide was used to analyze whether or not a peptide (TAK1-DN) from Glu at amino acid 77 to Gln at amino acid 303 in the TAK1 peptide of SEQ ID NO: 2 is capable of inhibiting the binding between TAK1 peptide and TAB1 peptide and further capable of inhibiting TAK1 peptide activation in animal cells.
First, each of genes encoding full-length TAK1 and TAK1-DN was ligated with the gene encoding GAL4 DNA-binding domain (GAL4-BD) to prepare an expression vector. The gene encoding full-length TAK1 was obtained from yeast two-hybrid expression plasmid pBTMHu11F (Shibuya H. et al., (1996) 272, 1179-1182) by digesting it with restriction enzymes EcoRI and PstI. Subsequently, the gene was ligated between EcoRI and PstI sites of an expression vector pM (CLONTECH) containing the GAL4-BD gene to obtain an animal cell two-hybrid expression plasmid pM-TAK1. […]
The culture further continued for 72 hours, and then luciferase activities in each cell extract were assayed by using Dual-Luciferase™ Reporter Assay System (Promega). […] The efficiency of gene introduction was normalized by using measured values for the activity of Renilla luciferase derived from the introduced pRL-SV40.

B1: TAK1-DN: TAB1-binding region of TAK1, amino acid 77 Glu to amino acid 303 Gln of SEQ ID NO: 2; dominant negative inhibitor (protein, listed as Homo sapiens)
chain: ELRQLSRVNHPNIVKLYGACLNPVCLVMEYAEGGSLYNVLHGAEPLPYYTAAHAMSWCLQCSQGVAYLHSMQPKALIHRDLKPPNLLLVAGGTVLKICDFGTACDIQTHMTNNKGSAAWMAPEVFEGSNYSEKCDVFSWGIILWEVITRRKPFDEIGGPAFRIMWAVHNGTRPPLIKNLPKPIESLMTRCWSKDPSQRPSMEEIVKIMTHLMRYFPGADEPLQYPCQ
Peritoneal macrophages [1]; ELISA
  induction of production of IL-1β: significantly inhibited
Peritoneal macrophages [1]
  induction of production of IL-6: significantly inhibited
  induction of production of TNF: significantly inhibited
Peritoneal macrophages [2]
  induction of IL-6 production by IL-1 stimulation: significantly inhibited
[3]; IL-1α 10 ng/ml
  degradation of IκBα: no remarkable degradation of IκBα
[3]; LPS 1 μg/ml
  degradation of IκBα: no remarkable degradation of IκBα
TAB1
  luciferase activity (binding to TAB1): capable of binding to TAB1
